Molecular target: T1, Mre11 (UniProt P49959 1-708)
T1 sequence: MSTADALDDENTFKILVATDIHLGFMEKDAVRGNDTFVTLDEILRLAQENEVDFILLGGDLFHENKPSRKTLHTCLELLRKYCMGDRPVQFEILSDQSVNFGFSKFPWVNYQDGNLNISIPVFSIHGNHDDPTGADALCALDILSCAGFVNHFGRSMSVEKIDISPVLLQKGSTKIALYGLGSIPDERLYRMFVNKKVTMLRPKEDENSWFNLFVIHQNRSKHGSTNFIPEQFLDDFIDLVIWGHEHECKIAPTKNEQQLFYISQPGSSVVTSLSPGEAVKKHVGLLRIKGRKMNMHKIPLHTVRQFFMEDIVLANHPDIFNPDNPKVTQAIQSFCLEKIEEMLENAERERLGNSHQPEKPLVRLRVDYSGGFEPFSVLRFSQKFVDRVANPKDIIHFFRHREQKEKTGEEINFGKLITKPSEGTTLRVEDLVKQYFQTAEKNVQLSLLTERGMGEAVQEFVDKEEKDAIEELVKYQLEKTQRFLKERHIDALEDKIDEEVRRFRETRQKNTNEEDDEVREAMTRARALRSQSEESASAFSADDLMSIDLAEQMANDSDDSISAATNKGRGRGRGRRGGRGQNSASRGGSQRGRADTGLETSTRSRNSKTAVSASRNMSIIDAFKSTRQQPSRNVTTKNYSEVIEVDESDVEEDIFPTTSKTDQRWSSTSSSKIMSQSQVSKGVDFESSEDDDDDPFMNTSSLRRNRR
Assay: EMSA; increasing Mre11; 1 mM Mg acetate; no Bcl2; EMSA: 25 mM MOPS pH 7.0, 60 mM KCl, 0.2% Tween, 2 mM DTT, 1 mM Mg(CH3COO)2, 37 C 15 min; 10 pM DNA, 10 nM Mre11; 5% native PAGE in TBE at 4 C
Conditions: protein: recombinant; tags: Flag; chain copies: 2; label: 5'-32P on TP423; 34 bp duplex (S3[1-34] with S4[1-34]); 3' overhangs 16 nt (TP423) and 15 nt (TP424)

B1: TP423/TP424 3' overhanging duplex (dsDNA)
DNA 1: CTGCAGGGTTTTTGTTCCAGTCTGTAGCACTGTGTAAGACAGGCCAGATC
DNA 2: CACAGTGCTACAGACTGGAACAAAAACCCTGCAGTACTCTACTCATCTC
B1: binds.
